Assay results published in US20090004214A1 (COMMISSARIAT A L ENERGIE ATOMIQUE, published 2009).

molecular target: T1, HLA-DR15 molecule (DRB1*1501) (human); experiment: competitive ELISA, tracer A3 152-166
T1 construct: HLA class II heterodimer

Binder	IC50 [nM]
PAWQPFLKDHRISTF (synthetic 15-mer) [survivin peptide 8-22]	5200
HRISTFKNWPFLEGC (synthetic 15-mer) [survivin peptide 17-31]	3
AKKVRRAIEQLAAMD (synthetic 15-mer) [survivin peptide 128-142]	284
QCFFCFKELEGWEPD (synthetic 15-mer) [survivin peptide 56-70]	3000
KKQFEELTLGEFLKL (synthetic 15-mer) [survivin peptide 90-104]	7500
ISTFKNWPFLEGCAC (synthetic 15-mer) [survivin peptide 19-33]	81
FEELTLGEFLKLDRE (synthetic 15-mer) [survivin peptide 93-107]	612
GEFLKLDRERAKNKI (synthetic 15-mer) [survivin peptide 99-113]	1200
PDLAQCFFCFKELEG (synthetic 15-mer) [survivin peptide 52-66]	2240
AGFIHCPTENEPDLA (synthetic 15-mer) [survivin peptide 41-55]	7000
LTLGEFLKLDRERAK (synthetic 15-mer) [survivin peptide 96-110]	490

molecular target: T2, HLA-DR3 molecule (DRB1*0301) (human); experiment: competitive ELISA, tracer MT 2-16
T2 construct: HLA class II heterodimer

Binder	IC50 [µM]
PAWQPFLKDHRISTF (synthetic 15-mer) [survivin peptide 8-22]	16
AKKVRRAIEQLAAMD (synthetic 15-mer) [survivin peptide 128-142]	12
GEFLKLDRERAKNKI (synthetic 15-mer) [survivin peptide 99-113]	4.67
PDLAQCFFCFKELEG (synthetic 15-mer) [survivin peptide 52-66]	11.8
LTLGEFLKLDRERAK (synthetic 15-mer) [survivin peptide 96-110]	5.48

molecular target: T3, HLA-DRB3 molecule (DRB3*0101) (human); experiment: competitive ELISA, tracer LOL 191-210
T3 construct: HLA class II heterodimer

Binder	IC50 [µM]
PAWQPFLKDHRISTF (synthetic 15-mer) [survivin peptide 8-22]	8.72
QCFFCFKELEGWEPD (synthetic 15-mer) [survivin peptide 56-70]	12
KKQFEELTLGEFLKL (synthetic 15-mer) [survivin peptide 90-104]	48
FEELTLGEFLKLDRE (synthetic 15-mer) [survivin peptide 93-107]	45
PDLAQCFFCFKELEG (synthetic 15-mer) [survivin peptide 52-66]	12.6
AGFIHCPTENEPDLA (synthetic 15-mer) [survivin peptide 41-55]	10

molecular target: T4, HLA-DR13 molecule (DRB1*1301) (human); experiment: competitive ELISA, tracer B1 21-36
T4 construct: HLA class II heterodimer

Binder	IC50 [µM]
PAWQPFLKDHRISTF (synthetic 15-mer) [survivin peptide 8-22]	2.31
HRISTFKNWPFLEGC (synthetic 15-mer) [survivin peptide 17-31]	0.735
ISTFKNWPFLEGCAC (synthetic 15-mer) [survivin peptide 19-33]	9.5
FEELTLGEFLKLDRE (synthetic 15-mer) [survivin peptide 93-107]	7.8
GEFLKLDRERAKNKI (synthetic 15-mer) [survivin peptide 99-113]	9.17
PDLAQCFFCFKELEG (synthetic 15-mer) [survivin peptide 52-66]	23
LTLGEFLKLDRERAK (synthetic 15-mer) [survivin peptide 96-110]	0.302

molecular target: T5, HLA-DR4 molecule (DRB1*0401) (human); experiment: competitive ELISA, tracer HA 306-318
T5 construct: HLA class II heterodimer

Binder	IC50 [µM]
PAWQPFLKDHRISTF (synthetic 15-mer) [survivin peptide 8-22]	46
HRISTFKNWPFLEGC (synthetic 15-mer) [survivin peptide 17-31]	9.2
KKQFEELTLGEFLKL (synthetic 15-mer) [survivin peptide 90-104]	0.748
ISTFKNWPFLEGCAC (synthetic 15-mer) [survivin peptide 19-33]	0.615
FEELTLGEFLKLDRE (synthetic 15-mer) [survivin peptide 93-107]	5.5
GEFLKLDRERAKNKI (synthetic 15-mer) [survivin peptide 99-113]	2.13
PDLAQCFFCFKELEG (synthetic 15-mer) [survivin peptide 52-66]	22
AGFIHCPTENEPDLA (synthetic 15-mer) [survivin peptide 41-55]	5
LTLGEFLKLDRERAK (synthetic 15-mer) [survivin peptide 96-110]	1.67

molecular target: T6, HLA-DRB5 molecule (DRB5*0101) (human); experiment: competitive ELISA, tracer HA 306-318
T6 construct: HLA class II heterodimer

Binder	IC50 [nM]
PAWQPFLKDHRISTF (synthetic 15-mer) [survivin peptide 8-22]	2190
HRISTFKNWPFLEGC (synthetic 15-mer) [survivin peptide 17-31]	302
QCFFCFKELEGWEPD (synthetic 15-mer) [survivin peptide 56-70]	20000
KKQFEELTLGEFLKL (synthetic 15-mer) [survivin peptide 90-104]	280
ISTFKNWPFLEGCAC (synthetic 15-mer) [survivin peptide 19-33]	3780
FEELTLGEFLKLDRE (synthetic 15-mer) [survivin peptide 93-107]	529
GEFLKLDRERAKNKI (synthetic 15-mer) [survivin peptide 99-113]	22
PDLAQCFFCFKELEG (synthetic 15-mer) [survivin peptide 52-66]	5350
AGFIHCPTENEPDLA (synthetic 15-mer) [survivin peptide 41-55]	3380
LTLGEFLKLDRERAK (synthetic 15-mer) [survivin peptide 96-110]	103

molecular target: T7, HLA-DR1 molecule (DRB1*0101) (human); experiment: competitive ELISA, tracer HA 306-318
T7 construct: HLA class II heterodimer

Binder	IC50 [nM]
PAWQPFLKDHRISTF (synthetic 15-mer) [survivin peptide 8-22]	6570
HRISTFKNWPFLEGC (synthetic 15-mer) [survivin peptide 17-31]	19
QCFFCFKELEGWEPD (synthetic 15-mer) [survivin peptide 56-70]	1600
KKQFEELTLGEFLKL (synthetic 15-mer) [survivin peptide 90-104]	40
ISTFKNWPFLEGCAC (synthetic 15-mer) [survivin peptide 19-33]	10
FEELTLGEFLKLDRE (synthetic 15-mer) [survivin peptide 93-107]	128
GEFLKLDRERAKNKI (synthetic 15-mer) [survivin peptide 99-113]	48
PDLAQCFFCFKELEG (synthetic 15-mer) [survivin peptide 52-66]	4100
AGFIHCPTENEPDLA (synthetic 15-mer) [survivin peptide 41-55]	2320
LTLGEFLKLDRERAK (synthetic 15-mer) [survivin peptide 96-110]	18

molecular target: T8, HLA-DR11 molecule (DRB1*1101) (human); experiment: competitive ELISA, tracer HA 306-318
T8 construct: HLA class II heterodimer

Binder	IC50 [nM]
HRISTFKNWPFLEGC (synthetic 15-mer) [survivin peptide 17-31]	247
QCFFCFKELEGWEPD (synthetic 15-mer) [survivin peptide 56-70]	363
KKQFEELTLGEFLKL (synthetic 15-mer) [survivin peptide 90-104]	2350
ISTFKNWPFLEGCAC (synthetic 15-mer) [survivin peptide 19-33]	147
FEELTLGEFLKLDRE (synthetic 15-mer) [survivin peptide 93-107]	548
GEFLKLDRERAKNKI (synthetic 15-mer) [survivin peptide 99-113]	40
PDLAQCFFCFKELEG (synthetic 15-mer) [survivin peptide 52-66]	92
AGFIHCPTENEPDLA (synthetic 15-mer) [survivin peptide 41-55]	1150
LTLGEFLKLDRERAK (synthetic 15-mer) [survivin peptide 96-110]	7

molecular target: T9, HLA-DP402 molecule (DPB1*0402) (human, UniProt P20036 29-222, limits assumed); experiment: competitive ELISA, tracer Oxy 271-287
T9 construct: HLA class II heterodimer; also called DP*0402

Binder	IC50 [nM]
PAWQPFLKDHRISTF (synthetic 15-mer) [survivin peptide 8-22]	10400
HRISTFKNWPFLEGC (synthetic 15-mer) [survivin peptide 17-31]	29
AKKVRRAIEQLAAMD (synthetic 15-mer) [survivin peptide 128-142]	20000
KKQFEELTLGEFLKL (synthetic 15-mer) [survivin peptide 90-104]	19
FEELTLGEFLKLDRE (synthetic 15-mer) [survivin peptide 93-107]	67
PDLAQCFFCFKELEG (synthetic 15-mer) [survivin peptide 52-66]	4580
LTLGEFLKLDRERAK (synthetic 15-mer) [survivin peptide 96-110]	620

molecular target: T10, HLA-DP401 molecule (DPB1*0401) (human, UniProt P20036 29-222, limits assumed); experiment: competitive ELISA, tracer Oxy 271-287
T10 construct: HLA class II heterodimer; also called DP*0401

Binder	IC50 [nM]
PAWQPFLKDHRISTF (synthetic 15-mer) [survivin peptide 8-22]	21000
HRISTFKNWPFLEGC (synthetic 15-mer) [survivin peptide 17-31]	40
AKKVRRAIEQLAAMD (synthetic 15-mer) [survivin peptide 128-142]	13000
KKQFEELTLGEFLKL (synthetic 15-mer) [survivin peptide 90-104]	48
ISTFKNWPFLEGCAC (synthetic 15-mer) [survivin peptide 19-33]	32
FEELTLGEFLKLDRE (synthetic 15-mer) [survivin peptide 93-107]	20
GEFLKLDRERAKNKI (synthetic 15-mer) [survivin peptide 99-113]	40000
LTLGEFLKLDRERAK (synthetic 15-mer) [survivin peptide 96-110]	2920

molecular target: T11, HLA-DR7 molecule (DRB1*0701) (human); experiment: competitive ELISA, tracer YKL
T11 construct: HLA class II heterodimer

Binder	IC50 [µM]
PAWQPFLKDHRISTF (synthetic 15-mer) [survivin peptide 8-22]	9.39
HRISTFKNWPFLEGC (synthetic 15-mer) [survivin peptide 17-31]	0.018
AKKVRRAIEQLAAMD (synthetic 15-mer) [survivin peptide 128-142]	1.34
QCFFCFKELEGWEPD (synthetic 15-mer) [survivin peptide 56-70]	13
KKQFEELTLGEFLKL (synthetic 15-mer) [survivin peptide 90-104]	0.14
ISTFKNWPFLEGCAC (synthetic 15-mer) [survivin peptide 19-33]	0.748
FEELTLGEFLKLDRE (synthetic 15-mer) [survivin peptide 93-107]	2.79
GEFLKLDRERAKNKI (synthetic 15-mer) [survivin peptide 99-113]	6.46
PDLAQCFFCFKELEG (synthetic 15-mer) [survivin peptide 52-66]	6.67
AGFIHCPTENEPDLA (synthetic 15-mer) [survivin peptide 41-55]	3.73
LTLGEFLKLDRERAK (synthetic 15-mer) [survivin peptide 96-110]	5.64

molecular target: T12, HLA-DRB4 molecule (DRB4*0101) (human); experiment: competitive ELISA, tracer E2/E168
T12 construct: HLA class II heterodimer

Binder	IC50 [µM]
PAWQPFLKDHRISTF (synthetic 15-mer) [survivin peptide 8-22]	29
HRISTFKNWPFLEGC (synthetic 15-mer) [survivin peptide 17-31]	7.5
AKKVRRAIEQLAAMD (synthetic 15-mer) [survivin peptide 128-142]	1.8
ISTFKNWPFLEGCAC (synthetic 15-mer) [survivin peptide 19-33]	3.12
GEFLKLDRERAKNKI (synthetic 15-mer) [survivin peptide 99-113]	22
AGFIHCPTENEPDLA (synthetic 15-mer) [survivin peptide 41-55]	0.328
LTLGEFLKLDRERAK (synthetic 15-mer) [survivin peptide 96-110]	3.6
